Reference: patent US20110104167A1, “Compositions and Methods for Diagnosing and Treating Insulin Resistance” (YEDA RESEARCH AND DEVELOPMENT CO. LTD., priority 2004, published 2011)
Substitutions are numbered along the chain they refer to. Names may count otherwise.

Key:
CHO-T cells = assay: Phosphorylation (mobility shift) of truncated IRS-1 PH/PTB constructs in CHO-T cells; type: cell-based, Chinese Hamster; settings: for effect of inhibitor pretreatment on the mobility shift of PH/PTB-L induced by chronic insulin: 30 min inhibitor, then 100 nM insulin 30 min
Procedure: FIGS. 7a-c show In vivo phosphorylation of PH/PTB-L in response to insulin. CHO-T cells were transiently transfected with pcDNA3-Myc-PH/PTB (1-1290 nt) or with an insert-free plasmid (control). Twenty-four hours post-transfection, the cells were deprived of serum for 16 h and were then treated with insulin for the indicated time periods. Cell extracts (100 μg) were resolved on 10% SDS-PAGE and immunoblotted with anti-pY or anti-Myc antibodies (FIG. 7a). In parallel, samples (100 μg, 40 μl) were incubated with 3 units (U) of calf intestine phosphatase (CIP) at 37° C. for 1 h. The samples were resolved on 10% SDS-PAGE and immunoblotted with anti-Myc antibodies (FIG. 7b). The results are of a representative of two experiments. FIG. 7c—CHO^PH/PTB-L cells were starved in serum-free F12 medium for 16 h. The cells were treated for 30 min with the indicated inhibitors prior to being treated with 100 nM insulin for 30 min. Cell extracts were prepared, samples were resolved on 10% SDS-PAGE and were immunoblotted with anti-Myc antibodies. Results are of a representative of three experiments.
FIGS. 8a-b show the effects of insulin on Serine phosphorylation of Myc-PH/PTB-L^7A CHO-T cells were transiently transfected with constructs encoding Myc-PH/PTB-L (1-1290 nt), either wild type (WT) or the 7A mutant (FIG. 8a). Alternatively, the cells were transfected or with the constructs encoding Myc-PH/PTB-L (1-1290 nt; 1-430 aa) or Myc-PH/PTB-S (1-1095 nt; 1-365 aa, FIG. 8b). Following 24 hours in culture, the cells were incubated in serum-free F12 medium for 16 ch prior to being treated with insulin for the indicated times. Cell extracts were resolved on 10% SDS-PAGE and immunoblotted with anti-Myc antibodies. Results are of a representative of three experiments.
FIGS. 9a-b show the effects of insulin and calyculin A on Ser phosphorylation of PH/PTB-L mutants. FIG. 9a—CHO-T cells were transiently transfected with constructs expressing either Myc-PH/PTB^WT or the following PH/PTB mutants: S336A, S407A, S408A, S407/8A and S3A (S336/407/408A). Following 24 hours the cells were deprived of serum for 16 h, and were treated with insulin for the indicated times. Cell extracts were resolved on 10% SDS-PAGE and immunoblotted with anti-Myc antibodies. The results are of a representative of two-three experiments. FIG. 9b—CHO-T cells were transiently transfected with pcDNA3-myc-PH/PTB^WT or pcDNA3-myc-PH/PTB^S408A. Following 24 hours the cells were starved for 16 h and were then treated either with 100 nM insulin for 30 min or with 25 nM calyculin A for 60 min. Cell extracts were resolved on 10% SDS-PAGE and were immunoblotted with anti-Myc antibodies. Results are of a representative of two experiments.
Plasmids construction—i. Myc-tagged-IRS-1 The cDNA, encoding for the mouse IRS-1 in the pCNA-3 expression plasmid (35) was digested with Hind III and BspE-1. This deleted a 9 by fragment from the 5′-IRS-1 cDNA that was replaced by a double stranded synthetic oligonucleotide encoding the Myc tag and the missing amino-acids of IRS-1 (bold) […] (SEQ ID NO. 9). ii. Myc-tagged truncated IRS-1 (aa 1-430, PH/PTB-L) Myc-tagged mouse IRS-1 cDNA (N-terminus, 1-1290 nt), encoding for the first 430 aa of IRS-1, was PCR-amplified with the following primers. 5′-CAGGATCCGCATATGGAACAAAAGCTC-3′ (sense) (SEQ ID NO. 10); 5′-GAGAATTCATCAGGGACTAGAACCATA-3′ (anti-sense) (SEQ ID NO. 11), using as a template the pcDNA3-Myc-IRS-1 plasmid. The PCR product was ligated into a pGEM-T. The insert was excised from pGEM-T with BamH I and EcoR I (italic), and then was ligated into pcDNA3 at the same restriction sites to generate pcDNA3-Myc-IRS-1^PH/PTB-L. iii. Myc-tagged truncated IRS-1 (aa 1-365, PH/PTB-S) Myc-tagged mouse IRS-1 cDNA (N-terminus, 1-1095 nt), encoding for the first 365 aa of IRS-1, was PCR-amplified with the following primers: 5′ […]-3′ (sense) (SEQ ID NO. 12); 5′ […] 3′ (anti sense) (SEQ ID NO. 13) using as a template the pcDNA3-Myc-IRS-1. […]

Fao cells = assay: Effect of inducers of insulin resistance on insulin-stimulated Tyr phosphorylation of IRS-1 in Fao cells; type: cell-based, rat
Procedure: FIGS. 5a-c show the effects of TPA and anisomycin on insulin-induced Tyr phosphorylation of IRS-1^7A in Fao cells. Fao cells were infected with Ad-Myc-IRS-1^WT or Ad-Myc-IRS-1^7A at 7×10^7 PFU/ml. Following 48 hours the cells were deprived of serum for 16 h, and were then treated for 60 min with 200 nM TPA (FIG. 5a); 50 ng/ml of anisomycin (FIG. 5b) or 1 μg/ml of anisomycin (FIG. 5c). This was followed by treatment with 100 nM insulin for 2 min (FIG. 5a) or for the indicated times (FIGS. 5b-c). Cell extracts were prepared, and samples (1 mg) were subjected to immunoprecipitation (IP) with anti-Myc antibodies (FIG. 5a). Immunocomplexes were resolved on 7.5 SDS-PAGE and were immunoblotted with the indicated antibodies. Alternatively, total cell extracts (FIGS. 5b-c) were resolved on 7.5% SDS-PAGE and immunoblotted with the indicated antibodies. Results of a representative of four experiments are presented. The results of two independent experiments done in duplicates were quantified (FIG. 5a, right panel).
FIGS. 6a-b show the dose dependent effect of Palmitic acid on Insulin-induced Tyr phosphorylation of IRS-1 mutants in Fao cells. Fao cells were infected with Ad-Myc-IRS-1^WT or Ad-Myc-IRS-1^7A at 7×10^7 PFU/ml. Following 24 hours the cells were deprived of serum for 12 h, and were then further incubated for 12 h with or without the indicated concentrations of palmitic acid in serum free medium prior to being stimulated with 100 nM insulin for the indicated times. Cell extracts (100 μg) were resolved on 7.5% SDS-PAGE and immunoblotted with anti-PY and anti-Myc antibodies. The results of two independent experiments done in duplicates were quantified.
FIGS. 11a-c show the effects of TPA and anisomycin on insulin-stimulated Tyr phosphorylation of IRS-1^WT, IRS-1^7A and IRS-1^408A. Fao cells were infected with Adeno-myc-IRS-1 wild type (WT); the 7A mutant; or the S408A mutant at a titer of 4-6×10^7 PFU/ml. Following 48 hours the cells were deprived of serum for 16 h, and were then treated for 60 min with 200 nM TPA (FIG. 11a), or 50 ng/ml anisomycin (FIG. 11b), followed by treatment with 100 nM insulin for the indicated times. Cell extracts were prepared, samples (1 mg) were subjected to immunoprecipitation (IP) with anti-Myc antibodies. Immunocomplexes were resolved on 7.5% SDS-PAGE and immunoblotted with anti-PY or anti IRS-1 antibodies.
Infection of Fao cells with adenovirus—Fao cells were grown in RPMI medium containing 10% FCS. At 70% confluence cells were infected with adenoviruses harboring the gene of interest at a titer of 7 10^7 PFU/ml. After incubation for 2 h hours at 37° C., the virus-containing medium was diluted 1:5 in fresh RPMI medium. After 24 h the medium was replaced with a fresh RPMI medium containing 10% FCS. […]

## COc1cccc(-c2cc(=O)c3ccccc3o2)c1N [PD98059]
CHO-T cells
  effect of inhibitor pretreatment on the mobility shift of PH/PTB-L induced by chronic insulin: ineffective

## CCCCCCCCCCCCCCCC(=O)O [FFA, Palmitic acid]
Fao cells; FFA 0.5-0.75 mM
  reduction in insulin-stimulated Tyr phosphorylation of IRS-1^WT by FFA pre-treatment: ~35%

## CCCCCCCCCCCCCC(=O)O[C@@H]1[C@@H](C)[C@@]2(O)[C@@H](C=C(CO)C[C@]3(O)C(=O)C(C)=C[C@@H]23)[C@@H]2C(C)(C)[C@]12OC(C)=O [TPA, phorbol 12-myristate 13-acetate]
Fao cells; 200 nM TPA 60 min, then 100 nM insulin 2 min
  inhibition of insulin-stimulated Tyr phosphorylation of Myc-IRS-1^WT by TPA pretreatment: ~40%

## C[S+]([O-])c1ccc(-c2nc(-c3ccncc3)c(-c3ccc(F)cc3)[nH]2)cc1 (stereo not drawn) [SB203580]
CHO-T cells
  effect of inhibitor pretreatment on the mobility shift of PH/PTB-L induced by chronic insulin: ineffective

B1: PH/PTB-S: Myc-tagged truncated mouse IRS-1 (aa 1-365), lacks S407 and S408 (protein, UniProt P35569 1-365, looked up, fragment)
chain: MASPPDTDGFSDVRKVGYLRKPKSMHKRFFVLRAASEAGGPARLEYYENEKKWRHKSSAPKRSIPLESCFNINKRADSKNKHLVALYTRDEHFAIAADSEAEQDSWYQALLQLHNRAKAHHDGAGGGCGGSCSGSSGVGEAGEDLSYDTGPGPAFKEVWQVILKPKGLGQTKNLIGIYRLCLTSKTISFVKLNSEAAAVVLQLMNIRRCGHSENFFFIEVGRSAVTGPGEFWMQVDDSVVAQNMHETILEAMRAMSDEFRPRSKSQSSSSCSNPISVPLRRHHLNNPPPSQVGLTRRSRTESITATSPASMVGGKPGSFRVRASSDGEGTMSRPASVDGSPVSPSTNRTHAHRHRGSSRLHPPLN
modifications: Myc tag
notes: Myc-tagged truncated mouse IRS-1 (aa 1-365), lacks S407 and S408
CHO-T cells; CHO-T cells, prolonged insulin
  mobility shift (Ser phosphorylation) following prolonged insulin treatment: no decrease in its mobility

B2: PH/PTB-L^S336A: PH/PTB-L with Ser336 mutated to Ala (protein, UniProt P35569 1-430, looked up, variant S336A)
chain: MASPPDTDGFSDVRKVGYLRKPKSMHKRFFVLRAASEAGGPARLEYYENEKKWRHKSSAPKRSIPLESCFNINKRADSKNKHLVALYTRDEHFAIAADSEAEQDSWYQALLQLHNRAKAHHDGAGGGCGGSCSGSSGVGEAGEDLSYDTGPGPAFKEVWQVILKPKGLGQTKNLIGIYRLCLTSKTISFVKLNSEAAAVVLQLMNIRRCGHSENFFFIEVGRSAVTGPGEFWMQVDDSVVAQNMHETILEAMRAMSDEFRPRSKSQSSSSCSNPISVPLRRHHLNNPPPSQVGLTRRSRTESITATSPASMVGGKPGSFRVRASSDGEGTMSRPAAVDGSPVSPSTNRTHAHRHRGSSRLHPPLNHSRSIPMPSSRCSPSATSPVSLSSSSTSGHGSTSDCLFPRRSSASVSGSPSDGGFISSDEYGSSP
modifications: Myc tag
notes: PH/PTB-L with Ser336 mutated to Ala
CHO-T cells; CHO-T cells
  mobility shift following 30 min insulin treatment: identical mobility-shifts as PH/PTB-L^WT

B3: PH/PTB-L^S407A: PH/PTB-L with Ser407 mutated to Ala (protein, UniProt P35569 1-430, looked up, variant S407A)
chain: B2 chain with A336S, S407A
modifications: Myc tag
notes: PH/PTB-L with Ser407 mutated to Ala
CHO-T cells; CHO-T cells
  mobility shift following 30 min insulin treatment: identical mobility-shifts as PH/PTB-L^WT

B4: PH/PTB-L^407/S408A: PH/PTB-L with Ser407 and Ser408 mutated to Ala (protein, UniProt P35569 1-430, looked up, variant S407A S408A)
chain: B2 chain with A336S, S407A, S408A
modifications: Myc tag
notes: PH/PTB-L with Ser407 and Ser408 mutated to Ala
CHO-T cells; CHO-T cells
  mobility shift following 30 min insulin treatment: abolished the mobility shift

B5: PH/PTB-L^S408A: PH/PTB-L with Ser408 mutated to Ala (protein, UniProt P35569 1-430, looked up, variant S408A)
chain: B2 chain with A336S, S408A
modifications: Myc tag
notes: PH/PTB-L with Ser408 mutated to Ala
CHO-T cells; CHO-T cells
  mobility shift following 30 min insulin treatment: abolished the mobility shift
